The target in the experiment is self-lipid accumulated in leukemia cells peptide on CD1c (human). Nature of the experiment: mLPA titration on K562-CD1c cells; CD69 on transduced Jurkat 76 b2m- cells (FIG. 5B); highest of the three TCRs titrated; full-length, on cells. The note with it: chains Valpha:Vbeta.

In US20180305432A1 one finds EC50 of peptide data, which are given here for one molecule.

B1: TCR DN4.99 (protein)
chain 1: AQTVTQSQPEMSVQEAETVTLSCTYDTSESDYYLFWYKQPPSRQMILVIRQEAYKQQNATENRFSVNFQKAAKSFSLKISDSQLGDAAMYFCAYRSPLNTGTASKLTFGTGTRLQVTL
chain 2: DVKVTQSSRYLVKRTGEKVFLECVQDMDHENMFWYRQDPGLGLRLIYFSYDVKMKEKGDIPEGYSVSREKKERFSLILESASTNQTSMYLCASSPWVSSYEQYFGPGTRLTVT
Consider B1, for which the EC50 of peptide was found to be 100 µg/mL.
